Results on 43 molecules are retold here after patent US20250084155A1 (University of Texas, published 2025).

Residue numbers refer to the chain shown, from its start.

This experiment concerns the target T1, HSP70 (human HSP70; the antigen of the binning, humanization and variant binding assays) (human, UniProt P0DMV8 1-641, limits assumed).
T1 construct: also called hu HSP70
Briefly: BLI, anti-human Fc capture, antigen 100 nM. How it is done: Binding assays were performed as follows. Antibody variants were immobilized using anti-human Fc onto the surface of a series of biosensors at […]. Antigen, at 100 nM, was passed over the surface to generate a binding response. Binding data for the antibody:antigen interactions were collected at 25° C. on the biosensors. In Table 14, X=610 represents captured antigen value (nM) at the beginning of the dissociation phase (measured at 610 seconds after the biosensor was initially contacted with antigen) and X=1495 represents captured antigen value (nM) at the end of the dissociation phase (measured at 1495 seconds after the biosensor was initially contacted with antigen). In Table 14, antibodies with an X=610 value greater than 0.2 and a % dissociation less than 10% are shown in bold.

T1 sequence (P0DMV8 whole entry, change not shown): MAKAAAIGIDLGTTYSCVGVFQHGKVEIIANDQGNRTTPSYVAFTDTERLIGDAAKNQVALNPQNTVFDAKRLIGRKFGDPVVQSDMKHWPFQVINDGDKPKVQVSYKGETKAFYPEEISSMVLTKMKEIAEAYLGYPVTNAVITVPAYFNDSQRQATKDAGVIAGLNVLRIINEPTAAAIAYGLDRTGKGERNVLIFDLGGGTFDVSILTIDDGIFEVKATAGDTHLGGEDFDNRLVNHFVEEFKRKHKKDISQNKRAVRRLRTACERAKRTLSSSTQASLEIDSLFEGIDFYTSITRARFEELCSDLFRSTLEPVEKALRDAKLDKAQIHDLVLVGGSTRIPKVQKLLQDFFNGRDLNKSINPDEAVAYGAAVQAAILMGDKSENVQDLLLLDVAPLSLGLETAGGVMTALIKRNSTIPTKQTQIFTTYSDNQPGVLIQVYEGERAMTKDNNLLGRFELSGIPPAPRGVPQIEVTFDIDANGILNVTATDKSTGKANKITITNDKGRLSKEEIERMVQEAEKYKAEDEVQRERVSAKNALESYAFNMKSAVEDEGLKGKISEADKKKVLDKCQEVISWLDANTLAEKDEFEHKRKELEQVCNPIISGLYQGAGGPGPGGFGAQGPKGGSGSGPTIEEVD

B1: h77A-1.2 (antibody, V domains shown)
VH: QIQLVQSGAEVKKPGASVKVSCKASGYTFTNYGMNWVRQAPGQGLEWMGWINTYTGEPRYADDFKGRFTFTTDTSTSTAYMELRSLRSDDTAVYFCARYDHAMDYWGQGTLVTVSS
VL: EIVLTQSPDSLAVSLGERATINCKSSQSLLNSGTRKNYLAWYQQKAGQSPKLLIYWTSTRESGVPDRFSGSGSGTDFTLTIDSLQAEDVAVYYCKQSYTLYTFGGGTKVEIK
notes: captured by anti-human Fc
On to B1, for which the “% Diss” value was -1.81%.

B2: h77A-1.70 (antibody, V domains shown)
VH: B1 VH with R59T, A61S
VL: B1 VL with A12S, Q44K, S83R, V91L
notes: captured by anti-human Fc
Take B2: the “% Diss” value was determined as 11.6%.

B3: h77A-1.43 (antibody, V domains shown)
VH: B1 VH with Q3H, R59T, A79V
VL: B1 VL with L53I
notes: captured by anti-human Fc
Consider B3, for which the “% Diss” value came to 21.1%.

B4: h77A-1.21 (antibody, V domains shown)
VH: B1 VH with A9D, R59T
VL: B1 VL with T80S
notes: captured by anti-human Fc
Take B4: the “% Diss” value was 10%.

B5: h77A-1.7 (antibody, V domains shown)
VH: B1 VH with R59T, A102F
VL: B1 VL
notes: captured by anti-human Fc
For the molecule B5, the “% Diss” value was 30.2%.

B6: h77A-1.28 (antibody, V domains shown)
VH: B1 VH with A9T, R59T, A102T
VL: B1 VL
notes: captured by anti-human Fc
As to B6, the “% Diss” value came to 18.8%.

B7: h77A-1.31 (antibody, V domains shown)
VH: B1 VH with R59T, A102P
VL: B1 VL with S83R
notes: captured by anti-human Fc
B7: the “% Diss” value is -3.52%.

B8: h77A-1.25 (antibody, V domains shown)
VH: B1 VH with R59T, A102F
VL: B1 VL with V91I
notes: captured by anti-human Fc
With B8, the “% Diss” value worked out at 23.2%.

B9: h77A-1.40 (antibody, V domains shown)
VH: B1 VH with R59T, A102Y
VL: B1 VL with A12T, T99N
notes: captured by anti-human Fc
Take B9: the “% Diss” value was found to be 11.9%.

B10: h77A-1.63 (antibody, V domains shown)
VH: B1 VH with R59T, T110S
VL: B1 VL with A40T, A46S, V91I
notes: captured by anti-human Fc
For the molecule B10, the “% Diss” value came out at 14.2%.

B11: h77A-1.24 (antibody, V domains shown)
VH: B1 VH with R59T, A102R
VL: B1 VL with A40T
notes: captured by anti-human Fc
Regarding B11, the “% Diss” value worked out at 33.6%.

B12: h77A-1.37 (antibody, V domains shown)
VH: B1 VH with N31K, P58S, R59T, A102V
VL: B1 VL
notes: captured by anti-human Fc
As for B12, the “% Diss” value stood at 22.8%.

B13: h77A-1.62 (antibody, V domains shown)
VH: B1 VH with R59T, S77T, A79G
VL: B1 VL with N22K, G70A
notes: captured by anti-human Fc
Take B13: the “% Diss” value stood at 12.3%.

B14: h77A-1.45 (antibody, V domains shown)
VH: B1 VH with A9V, R59T, A79V
VL: B1 VL with T99S
notes: captured by anti-human Fc
As to B14, the “% Diss” value worked out at 33.9%.

B15: h77A-1.57 (antibody, V domains shown)
VH: B1 VH with P58A, R59T, A102V
VL: B1 VL with L30V, A86T
notes: captured by anti-human Fc
Turning to B15, the “% Diss” value came out at 25.9%.

B16: h77A-1.52 (antibody, V domains shown)
VH: B1 VH with A9V, T28I, A102R
VL: B1 VL
notes: captured by anti-human Fc
Regarding B16, the “% Diss” value is -115%.

B17: h77A-1.42 (antibody, V domains shown)
VH: B1 VH with Q3H, R59T, A97T, A102R
VL: B1 VL
notes: captured by anti-human Fc
As to B17, the “% Diss” value was determined as 33.5%.

B18: h77A-1.15 (antibody, V domains shown)
VH: B1 VH with R59T, A102V
VL: B1 VL
notes: captured by anti-human Fc
Consider B18, for which the “% Diss” value is 33%.

B19: h77A-1.35 (antibody, V domains shown)
VH: B1 VH with A9T, R59T, A102H
VL: B1 VL with A12T
notes: captured by anti-human Fc
With B19, the “% Diss” value worked out at 4.38%.

B20: h77A-1.36 (antibody, V domains shown)
VH: B1 VH with R59T, S77T, A102H
VL: B1 VL with L30F
notes: captured by anti-human Fc
Turning to B20, the “% Diss” value came to 6.96%.

B21: h77A-1.64 (antibody, V domains shown)
VH: B1 VH with P58S, R59T
VL: B1 VL with Q44K, T80S, V91I
notes: captured by anti-human Fc
For B21, the “% Diss” value was 21%.

B22: h77A-1.41 (antibody, V domains shown)
VH: B1 VH with R59T, S77T, A102V
VL: B1 VL with A46P
notes: captured by anti-human Fc
Take B22: the “% Diss” value came to 34.2%.

B23: h77A-1.3 (antibody, V domains shown)
VH: B1 VH with R59T, A102R
VL: B1 VL
notes: captured by anti-human Fc
As to B23, the “% Diss” value worked out at 28.7%.

B24: h77A-1.48 (antibody, V domains shown)
VH: B1 VH with R59T, E82D, A102Y
VL: B1 VL with A46P
notes: captured by anti-human Fc
B24: the “% Diss” value amounted to 34.5%.

B25: h77A-1.20 (antibody, V domains shown)
VH: B1 VH with A9D, R59T, A61S
VL: B1 VL
notes: captured by anti-human Fc
As for B25, the “% Diss” value turned out to be 12.1%.

B26: h77A-1.55 (antibody, V domains shown)
VH: B1 VH with A9S, R59T, A61G, A102F
VL: B1 VL with A12S
notes: captured by anti-human Fc
For the molecule B26, the “% Diss” value was determined as 26.7%.

B27: h77A-1.5 (antibody, V domains shown)
VH: B1 VH with R59T
VL: B1 VL with T99N
notes: captured by anti-human Fc
On to B27, for which the “% Diss” value stood at 25.3%.

B28: h77A-1.47 (antibody, V domains shown)
VH: B1 VH with A9T, R59T, A102L
VL: B1 VL with A86T
notes: captured by anti-human Fc
With B28, the “% Diss” value amounted to 13.6%.

B29: h77A-1.26 (antibody, V domains shown)
VH: B1 VH with R59T, S77R, A97T
VL: B1 VL
notes: captured by anti-human Fc
In the case of B29, the “% Diss” value came out at 11.8%.

B30: h77A-1.50 (antibody, V domains shown)
VH: B1 VH with Q3H, A9V, R59T, A61T
VL: B1 VL with V91I
notes: captured by anti-human Fc
Consider B30, for which the “% Diss” value worked out at 11.2%.

B31: h77A-1.29 (antibody, V domains shown)
VH: B1 VH with R59T, A102F
VL: B1 VL with L30F
notes: captured by anti-human Fc
Consider B31, for which the “% Diss” value turned out to be 28.3%.

B32: h77A-1.53 (antibody, V domains shown)
VH: B1 VH with R59K, A61T, S77R
VL: B1 VL with A12S
notes: captured by anti-human Fc
With B32, the “% Diss” value stood at 11.1%.

B33: h77A-1.13 (antibody, V domains shown)
VH: B1 VH with R59T, A102P
VL: B1 VL
notes: captured by anti-human Fc
In the case of B33, the “% Diss” value was found to be 13.4%.

B34: h77A-1.11 (antibody, V domains shown)
VH: B1 VH with R59T
VL: B1 VL with A46P
notes: captured by anti-human Fc
B34: the “% Diss” value came to 10.7%.

B35: h77A-1.33 (antibody, V domains shown)
VH: B1 VH with N31K, R59T, A102N
VL: B1 VL
notes: captured by anti-human Fc
Consider B35, for which the “% Diss” value stood at 20.6%.

B36: h77A-1.23 (antibody, V domains shown)
VH: B1 VH with R59T
VL: B1 VL with A40S, T99S
notes: captured by anti-human Fc
For the molecule B36, the “% Diss” value was determined as 24%.

B37: h77A-1.54 (antibody, V domains shown)
VH: B1 VH with N31K, R59K, A61G, A102R
VL: B1 VL
notes: captured by anti-human Fc
On to B37, for which the “% Diss” value was -41.2%.

B38: h77A-1.38 (antibody, V domains shown)
VH: B1 VH with A9T, R59T, S77R, A102L
VL: B1 VL
notes: captured by anti-human Fc
For B38, the “% Diss” value came out at 10.5%.

B39: h77A-1.65 (antibody, V domains shown)
VH: B1 VH with P58A, R59T, T110S
VL: B1 VL with A46S, V91I
notes: captured by anti-human Fc
For B39, the “% Diss” value turned out to be 20.5%.

B40: h77A-1.39 (antibody, V domains shown)
VH: B1 VH with R59T, A61S, S77R
VL: B1 VL with T99N
notes: captured by anti-human Fc
Turning to B40, the “% Diss” value worked out at 21%.

B41: h77A-1.4 (antibody, V domains shown)
VH: B1 VH with R59I
VL: B1 VL
notes: captured by anti-human Fc
As for B41, the “% Diss” value was 31.8%.

B42: h77A-1.66 (antibody, V domains shown)
VH: B1 VH with T28I, P58S, R59T, A79V
VL: B1 VL with N22K
notes: captured by anti-human Fc
Consider B42, for which the “% Diss” value is 32.1%.

B43: h77A-1.9 (antibody, V domains shown)
VH: B1 VH with R59T, A102T
VL: B1 VL
notes: captured by anti-human Fc
Take B43: the “% Diss” value turned out to be 18.3%.
